In this assay the target is T1, EsxW wildtype (2Thr) (Mycobacterium tuberculosis H37Rv, UniProt P9WNI3 1-98).
T1 sequence: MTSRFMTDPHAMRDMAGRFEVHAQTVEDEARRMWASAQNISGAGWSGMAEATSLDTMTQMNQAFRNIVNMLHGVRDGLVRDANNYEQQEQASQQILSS
The assay is described as follows: MST.

B1: EsxV (natural protein)
chain: MTINYQFGDVDAHGAMIRAQAGSLEAEHQAIISDVLTASDFWGGAGSAACQGFITQLGRNFQVIYEQANAHGQKVQAAGNNMAQTDSAVGSSWA
The molecule B1 returned a dissociation constant Kd of 600 nM.

The values above are taken from article PMC6143168 (Nature genetics, 2018).
